B1: engineered, dominant-negative TGF-β receptor Type 1 (DN TGF-βRI) construct of SEQ ID NO: 10 (receptor)
chain: LQCFCHLCTKDNFTCVTDGLCFVSVTETTDKVIHNSMCIAEIDLIPRDRPFVCAPSSKTGSVTTTYCCNQDHCNKIELPTTVKSSPGLGPVELAAVIAGPVCFVCISLMLMVYIRVNRQ
B2: Construct CAR 1 (GPC3 scFv + 4-1BB intracellular domain + CD3ζ intracellular domain), GPC3-CAR encoded by the codon-optimized sequence of SEQ ID NO: 51 (other)
chain: DIVMTQSPDSLAVSLGERATINCKSSQSLLYSSNQKNYLAWYQQKPGQPPKLLIYWASSRESGVPDRFSGSGSGTDFTLTISSLQAEDVAVYYCQQYYNYPLTFGQGTKLEIKGSTSGSGKPGSGEGSTKGEVQLVESGGGLVQPGGSLRLSCAASGFTFNKNAMNWVRQAPGKGLEWVGRIRNKTNNYATYYADSVKARFTISRDDSKNSLYLQMNSLKTEDTAVYYCVAGNSFAYWGQGTLVTVSSGSTTTPAPRPPTPAPTIASQPLSLRPEACRPAAGGAVHTRGLDFACDIYIWAPLAGTCGVLLLSLVITLYCKRGRKKLLYIFKQPFMRPVQTTQEEDGCSCRFPEEEEGGCELRVKFSRSADAPAYQQGQNQLYNELNLGRREEYDVLDKRRGRDPEMGGKPRRKNPQEGLYNELQKDKMAEAYSEIGMKGERRRGKGHDGLYQGLSTATKDTYDALHMQALPPR
notes: Chimeric antigen receptor expressed on transduced primary human CD3+ T cells; also called GPC3-CAR construct

Legend:
[1] = target: TGF-β Receptor Type II (TGF-βRII), endogenous wild-type, in primary human T cells (human, UniProt P37173 23-567); assay: cell-based or functional assay
[2] = target: T1, recombinant human GPC3 (rhGPC3) fluorescently conjugated to DyLight 650 (human, UniProt P51654 25-559, limits assumed, fluorescently conjugated to DyLight 650); assay: flow cytometry; rhGPC3-DyLight 650 staining of CAR+ T cells
T1 construct: Soluble staining reagent for flow cytometry, diluted 1:200; also called Glypican-3
Source text: (§1) Similar to the previous trials, CD3⁺ cells were isolated from primary human peripheral blood mononuclear cells (PBMCs) and transduced with the GPC3 CAR constructs above in the presence of polybrene and at a multiplicity of infection of two, based on expression titer in Jurkat cells. At the end of manufacturing, cells were frozen down in Cryostor® CS5 and stored in liquid nitrogen until thawing. Upon thawing, cells were rested in T cell culture medium overnight with 100 UI/mL IL-2, washed, and stained with Live/Dead™ Violet diluted at 1:1000, recombinant human GPC3 (rhGPC3) fluorescently conjugated to DyLight™ 650 diluted at 1:200, and anti-CD3 BV650 at 1:100 in PBS for 30 min at 4° C. The DNA of a pellet of 1×10⁵ cells was extracted in QuickExtract™ Buffer, frozen, and used to measure average vector copy number (VCN) by droplet digital PCR quantifying frequency of integrated virus per cell. Percentage CAR+ cells are defined as percentage of cells staining with rhGPC3 amongst Live/Dead™ negative, CD3⁺ positive cells, and Mean Fluorescence Intensity (MFI) of CAR⁺, and Vector copy number (VCN) are given in the example. […] Construct CAR 1 also has higher MFI of CAR⁺ cells, which could indicate more efficient expression or higher affinity of the CAR to rhGPC3.

[3] = target: T1, recombinant human GPC3 (rhGPC3) …; assay: flow cytometry; transduced T cells stained with rhGPC3-DyLight 650 at 1:200; gated live CD3+
Source text: as §1

TGF-β Receptor Type II (TGF-βRII), endogenous wild-type, in primary human T cells, sequence (P37173 23-567): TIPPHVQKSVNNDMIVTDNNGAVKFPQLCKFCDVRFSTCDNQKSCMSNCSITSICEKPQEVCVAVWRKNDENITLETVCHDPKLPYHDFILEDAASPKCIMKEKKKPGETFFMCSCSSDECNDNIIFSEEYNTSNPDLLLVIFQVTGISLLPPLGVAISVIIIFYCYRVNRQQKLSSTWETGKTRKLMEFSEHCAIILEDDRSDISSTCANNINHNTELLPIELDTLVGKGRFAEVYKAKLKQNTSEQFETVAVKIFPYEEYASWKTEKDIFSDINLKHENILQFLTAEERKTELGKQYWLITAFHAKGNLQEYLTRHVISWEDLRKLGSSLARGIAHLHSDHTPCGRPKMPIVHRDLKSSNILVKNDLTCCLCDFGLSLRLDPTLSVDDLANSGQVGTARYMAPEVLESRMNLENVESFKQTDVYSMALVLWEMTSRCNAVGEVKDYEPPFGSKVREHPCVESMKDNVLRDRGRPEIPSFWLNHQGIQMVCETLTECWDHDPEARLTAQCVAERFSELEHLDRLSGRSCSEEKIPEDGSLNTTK
T1 sequence (P51654 25-559 limits assumed): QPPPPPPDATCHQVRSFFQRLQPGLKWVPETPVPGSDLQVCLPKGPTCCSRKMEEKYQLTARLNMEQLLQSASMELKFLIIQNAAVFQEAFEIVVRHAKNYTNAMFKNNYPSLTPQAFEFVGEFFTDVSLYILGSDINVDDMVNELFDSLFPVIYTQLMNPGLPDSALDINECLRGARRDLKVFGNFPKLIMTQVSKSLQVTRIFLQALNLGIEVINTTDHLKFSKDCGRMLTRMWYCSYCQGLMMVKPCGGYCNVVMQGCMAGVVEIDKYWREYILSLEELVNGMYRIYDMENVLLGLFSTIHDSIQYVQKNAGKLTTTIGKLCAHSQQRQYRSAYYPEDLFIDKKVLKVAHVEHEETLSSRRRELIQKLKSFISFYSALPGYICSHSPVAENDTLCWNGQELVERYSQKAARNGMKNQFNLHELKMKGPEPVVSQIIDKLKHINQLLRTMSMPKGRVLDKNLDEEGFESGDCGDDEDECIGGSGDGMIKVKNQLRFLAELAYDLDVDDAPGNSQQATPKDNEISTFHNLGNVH

| Binder | fold less induction of pSMAD2 and pSMAD3 versus PSMA CAR only, TGF-β1 stimulated T cells [1] [fold] | fold less induction of pSMAD2 versus CD19 CAR only, TGF-β1 stimulated T cells [1] [fold] | fold less induction of pSMAD2 versus GPC3 CAR only, 4-1BB co-stimulation, TGF-β1 stimulated T cells [1] [fold] | fold less induction of pSMAD3 versus CD19 CAR only, TGF-β1 stimulated T cells [1] [fold] | fold less induction of pSMAD3 versus GPC3 CAR only, 4-1BB co-stimulation, TGF-β1 stimulated T cells [1] [fold] | MFI CAR + [2] [MFI] | % CAR + (percentage of cells staining with rhGPC3) [3] [%] |
| --- | --- | --- | --- | --- | --- | --- | --- |
| B1 | ~2 | ~4 | ~3 | ~2 | ~1.3 | – | – |
| B2 | – | – | – | – | – | 21100 | 93.4 |

Reference: patent US20250109182A1 (KITE PHARMA, published 2025)
